Laboratory results as given in patent publication US20100324271A1 (TOKAI UNIVERSITY EDUCATIONAL SYSTEM, published 2010).

Target: T1, fetuin (UniProt P12763 19-359, carrying complex type and O-linked oligosaccharides)
T1 construct: Natural glycoprotein, separated by SDS-PAGE and blotted onto PVDF; also called fetuin carrying complex type and O-linked oligosaccharides
T1 sequence (looked up): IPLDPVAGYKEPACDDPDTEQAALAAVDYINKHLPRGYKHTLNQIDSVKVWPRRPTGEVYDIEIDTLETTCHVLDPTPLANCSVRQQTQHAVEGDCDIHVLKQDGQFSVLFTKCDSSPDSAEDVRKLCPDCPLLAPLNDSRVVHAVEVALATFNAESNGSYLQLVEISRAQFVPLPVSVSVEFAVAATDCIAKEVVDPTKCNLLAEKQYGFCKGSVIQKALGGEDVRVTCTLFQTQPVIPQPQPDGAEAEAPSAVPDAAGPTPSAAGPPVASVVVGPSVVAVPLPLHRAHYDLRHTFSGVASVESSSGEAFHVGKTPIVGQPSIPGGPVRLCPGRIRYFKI
Assay: Western blot, 5 µg/lane on PVDF, phage detected with HRP-labeled anti-M13 antibody
Protocol: Fetuin, asialo-fetuin, RNase A, and RNase B (5 μg/lane) were separated by SDS-polyacrylamide gel electrophoresis (10% gel) and blotted onto a PVDF membrane. The SDS-PAGE gel was stained with Coomassie Brilliant Blue. The reactivity of phage antibody to natural glycoproteins was examined by Western blotting with M3-7 phage antibody followed by HRP-labeled anti-M13 phage antibody as described above.

B1: M3-7 phage antibody (scFv, V domains shown)
VH: QVQLQQSGPGLVKASETLSLTCAVSGYSISSGYYWGWIRQPPGKGLEWIGNIYHSGNTYYNPSLKSRVTISRDTSKNHFSLKLKSVTAADTAVYYCARADPGYMIFNWFDPWGQGTLVTVSS
VL: NFMLTQPPSASGTPGQRVTISCSGSSSNIGNNDVYWYQQFPGTAPKLLIYRNNQRPSGVPDRFSGSKSGTSASLAISGLRSEDEADYYCAAWDDSLIFGGGTKLTVLG
notes: also called Man3-specific scFv-displaying phage antibody
B1: no binding.
